± gives the standard deviation of the averaged measurements.
B1: library; a variant is named by its letters at N, in order (parent)
chain: GCUGUCACCGAGAAACUGUGAAGUAUAUCUUAAACCUGGGCACUUAAAAGAUAUAUGGAGUUAGUAGUGCAACCUGCUCGGUCUGAUGAGUCCNNNNNNGGACGAAACAGC

Experiments:
cyclic di-GMP [1] = variants of: B1; assay: FACS-Seq fitted mean relative fluorescence mCherry/BFP without ligand (log10 relative fluorescence); HEK293T; ligand: cyclic di-GMP (c-di-GMP-II aptamer); higher = higher reporter protein expression; settings: ligand present: no
Summary of the method: (§1)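 With or without ligand for 48 h, enriched HEK293T libraries carrying a lentiviral ribozyme-switch mCherry reporter and EF1α-BFP were sorted into 6 mCherry/BFP bins. Bin genomic DNA was amplified by PCR, barcoded and sequenced on MiSeq. Fluorescence was taken from normal fits to the resulting bin counts. Each fitted mean of log10(mCherry/BFP) was scaled to five spiked-in control ribozymes.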

cyclic di-GMP [2] = variants of: B1; assay: normalized RNA/DNA level without ligand (relative to sTRSVctl = 100) (log10 (% of sTRSVctl)); HEK293T; ligand: cyclic di-GMP (c-di-GMP-II aptamer); higher = less ribozyme self-cleavage, higher mRNA level; settings: reporter: mCherry (pCS4076), ligand present: no
Summary of the method: (§2)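 For each 6-well well, 4 µg of library plasmid encoding mCherry-linked ribozyme switches, or eGFP-linked ones in some ligand experiments, was transfected into HEK293T. Any ligand was added 1 h before transfection, and RNA was extracted with EDTA 72 h after it, then reverse-transcribed, amplified, barcoded and sequenced. RNA level was obtained by dividing RNA reads by DNA reads, normalizing to a spiked-in non-cleaving sequence or to the top sequences, then scaling and log-transforming. The top set was 25 sequences, scaling was ×100 with log10, and ≥100 DNA reads were required.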

cyclic di-GMP [3] = variants of: B1; assay: FACS-Seq fitted mean relative fluorescence mCherry/BFP with ligand (log10 relative fluorescence); HEK293T; ligand: cyclic di-GMP (c-di-GMP-II aptamer); ligand concentration (+) FACS-Seq: 1 mM; higher = higher reporter protein expression; settings: ligand present: yes
Summary of the method: as §1

cyclic di-GMP [4] = variants of: B1; assay: normalized RNA/DNA level with ligand (relative to sTRSVctl = 100) (log10 (% of sTRSVctl)); HEK293T; ligand: cyclic di-GMP (c-di-GMP-II aptamer); ligand concentration (+) RNA-Seq: 1 mM; higher = less ribozyme self-cleavage, higher mRNA level; settings: reporter: mCherry (pCS4076), ligand present: yes
Summary of the method: as §2

Variant	FACS-Seq fitted mean (log10) (cyclic di-GMP [1])	normalized RNA/DNA level without ligand (log10) (cyclic di-GMP [2])	FACS-Seq fitted mean (log10) (cyclic di-GMP [3])	normalized RNA/DNA level with ligand (log10) (cyclic di-GMP [4])
AUUCCC	-0.55 ± 0.097	1.8 ± 0.045	-0.405 ± 0.018	1.89 ± 0.11
AUUCCA	-0.182 ± 0.1	1.7 ± 0.044	-0.0711 ± 0.041	1.88 ± 0.14
CUGUUA	-0.289 ± 0.046	1.33 ± 0.091	0.158 ± 0.13	1.58 ± 0.084
UUUAGU	0.00244 ± 0.12	1.732 ± 0.013	0.273 ± 0.034	1.87 ± 0.088
GUUCUA	-0.743 ± 0.033	1.635 ± 0.0068	-0.5214 ± 0.0042	1.75 ± 0.095
GUUCUG	-0.079 ± 0.018	1.67 ± 0.021	0.284 ± 0.091	1.84 ± 0.15
AUCUGC	-0.0609 ± 0.046	1.731 ± 0.0043	0.176 ± 0.085	1.88 ± 0.14
AUCUGG	-0.899 ± 0.093	1.67 ± 0.058	-0.683 ± 0.046	1.81 ± 0.12
GUGCCG	-0.423 ± 0.023	1.828 ± 0.017	-0.15 ± 0.011	1.92 ± 0.11
AUUCGC	-0.123 ± 0.015	1.7768 ± 0.00017	0.194 ± 0.063	1.91 ± 0.11
AUUCGG	-0.4 ± 0.23	1.7 ± 0.019	0.0339 ± 0.063	1.82 ± 0.2
AUGCGA	-0.411 ± 0.064	1.49 ± 0.079	-0.0888 ± 0.022	1.66 ± 0.13
AUGCCA	-0.283 ± 0.032	1.704 ± 0.0062	0.176 ± 0.089	1.84 ± 0.08
UUUGUU	-0.123 ± 0.13	1.73 ± 0.063	0.125 ± 0.064	1.86 ± 0.13
UUUGUA	-0.5429 ± 0.0021	1.708 ± 0.002	-0.268 ± 0.088	1.85 ± 0.13
CUUUCA	-0.391 ± 0.0064	1.42 ± 0.11	-0.114 ± 0.028	1.66 ± 0.051
CUUUCC	0.0673 ± 0.015	1.82 ± 0.038	0.163 ± 0.01	1.93 ± 0.11
CUUUCU	-0.275 ± 0.072	1.65 ± 0.072	0.0435 ± 0.082	1.77 ± 0.095
AUUACG	-0.439 ± 0.014	1.67 ± 0.032	-0.0914 ± 0.065	1.83 ± 0.072

Variant	FACS-Seq fitted mean (log10) (cyclic di-GMP [1])	normalized RNA/DNA level without ligand (log10) (cyclic di-GMP [2])	FACS-Seq fitted mean (log10) (cyclic di-GMP [3])	normalized RNA/DNA level with ligand (log10) (cyclic di-GMP [4])
CUUCAA	-0.32 ± 0.059	1.43 ± 0.099	0.136 ± 0.056	1.64 ± 0.083
CUUCAU	-0.264 ± 0.079	1.58 ± 0.044	-0.136 ± 0.066	1.75 ± 0.12
UUUCGA	0.0382 ± 0.21	1.82 ± 0.041	0.251 ± 0.061	1.89 ± 0.079
GUGAGA	-0.476 ± 0.052	1.41 ± 0.058	-0.164 ± 0.051	1.6 ± 0.089
CUGCGG	0.154 ± 0.06	1.82 ± 0.042	0.241 ± 0.03	1.84 ± 0.087
CUGCGA	-0.33 ± 0.01	1.65 ± 0.024	0.0519 ± 0.0084	1.8 ± 0.095
GUUACU	-0.232 ± 0.064	1.75 ± 0.027	0.0991 ± 0.015	1.82 ± 0.13
AUGACU	-1.21 ± 0.091	1.71 ± 0.0041	-0.93 ± 0.06	1.85 ± 0.11
GUUUUU	-0.978 ± 0.05	1.715 ± 0.0068	-0.711 ± 0.12	1.87 ± 0.12
GUUUUG	0.124 ± 0.17	1.61 ± 0.095	0.384 ± 0.05	1.8 ± 0.083
AUGGUG	-0.341 ± 0.087	1.56 ± 0.1	-0.113 ± 0.021	1.7 ± 0.094
AUGGUA	-0.519 ± 0.1	1.46 ± 0.066	-0.143 ± 0.024	1.65 ± 0.098
AUGUAC	-0.466 ± 0.057	1.6256 ± 0.0011	-0.129 ± 0.17	1.79 ± 0.077
AUGUAU	-0.148 ± 0.067	1.61 ± 0.036	0.196 ± 0.014	1.82 ± 0.052
AUGUUA	-0.342 ± 0.13	1.523 ± 0.0094	-0.0703 ± 0.042	1.73 ± 0.1
AUGGGU	-0.563 ± 0.083	1.54 ± 0.072	-0.3945 ± 0.00061	1.74 ± 0.07
AAAACA	–	1.51 ± 0.072	–	1.7 ± 0.074
AAAACC	–	1.68 ± 0.014	–	1.81 ± 0.083
